Bounds are passed on as bounds.

The record followed here is US20070105771A1 (Y S THERAPEUTICS, published 2007).

Assay [1] addresses T1, Purified recombinant human CD26 (rhDipeptidyl peptidase IV), R&D Systems CAT #1180-SE (human, UniProt P27487 29-766).
T1 construct: Bought recombinant protein; also called hu-CD26; soluble human CD26
As to the kind of experiment: SPR (Biacore), CD26 preoccupied by the Fab; competitor 14D10 ascites. From the text:
A specificity analysis of selected Fabs comprising pairs of variant VH and VL sequences was done. […] The analysis was done using Biacore® as described in Example 1.
On the technique in general: Surface plasmon resonance follows binding to a sensor surface in real time, without labels.

In assay [2] the target is T1, Purified recombinant human CD26 …. As to the kind of experiment: SPR (Biacore), Fab.
Assay [3] shares this target. Put plainly: SPR (Biacore), Fab. This is another data set of the same source.
For assay [4] the target is unchanged. Put plainly: SPR (Biacore).

T1 sequence (P27487 29-766 limits assumed): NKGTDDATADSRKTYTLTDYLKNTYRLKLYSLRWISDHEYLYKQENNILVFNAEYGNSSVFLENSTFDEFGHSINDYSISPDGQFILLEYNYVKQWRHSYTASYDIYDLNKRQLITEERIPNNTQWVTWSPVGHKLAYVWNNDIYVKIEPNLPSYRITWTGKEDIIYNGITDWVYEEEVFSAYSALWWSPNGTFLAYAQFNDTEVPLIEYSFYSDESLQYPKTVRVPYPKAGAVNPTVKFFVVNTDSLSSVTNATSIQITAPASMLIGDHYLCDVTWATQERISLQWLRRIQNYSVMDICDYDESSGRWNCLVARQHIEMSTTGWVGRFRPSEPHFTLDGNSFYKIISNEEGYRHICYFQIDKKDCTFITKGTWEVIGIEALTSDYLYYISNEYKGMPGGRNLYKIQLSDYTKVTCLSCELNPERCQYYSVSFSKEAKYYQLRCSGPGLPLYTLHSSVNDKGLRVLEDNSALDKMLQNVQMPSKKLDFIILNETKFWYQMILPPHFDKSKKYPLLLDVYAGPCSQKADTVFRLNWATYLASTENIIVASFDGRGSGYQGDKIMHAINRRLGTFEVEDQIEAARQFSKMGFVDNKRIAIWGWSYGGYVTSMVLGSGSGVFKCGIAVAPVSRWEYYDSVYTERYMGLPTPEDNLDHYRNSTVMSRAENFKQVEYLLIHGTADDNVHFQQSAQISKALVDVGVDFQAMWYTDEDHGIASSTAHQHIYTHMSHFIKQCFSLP

B1: Fab X392 (X384 VH and X379 VL) (Fab, V domains shown)
VH: EVQLVESGAGVKQPGGTLRLTCTASGFSLTTYGVHWVRQAPGKGLEWVGVIWGDGRTDYDAAFMSRVTISKDTSKSTVYLQMNSLRAEDTAVYYCMRNRHDWFDYWGQGTTVTVSS
VL: DILLTQSPSSLSATPGERATITCRASQGIRNNLNWYQQKPGQAPRLLIYYSSNLQSGVPSRFSGSGSGTDFTLTISRLQPEDVAAYYCQQSIKLPFTFGSGTKVEIK
notes: Fab made in E. coli
As usually defined, the Kd is the equilibrium constant for the complex coming apart. Regarding B1, in assay [1], the “percent decrease in binding of 14D10 to CD26” value was at least 80%. Further, in assay [2], the Kd is 0.24 nM and the “ratio of the Kd of CM03 Fab to the Kd of individual clone” value came to 6.79. Moreover, in assay [3], the Kd was found to be 0.24 nM.

B2: Fab X393 (X385 VH and X379 VL) (Fab, V domains shown)
VH: EVQLVQSGGGVKQPGETLRLTCTASGFSLTTYGVHWVRQAPGKGLEWVGVIWGDGRTDYDAAFMSRVTISKDTSKSTAYLQMNSLRAEDTAVYYCMRNRHDWFDYWGQGTTVTVSS
VL: DILLTQSPSSLSATPGERATITCRASQGIRNNLNWYQQKPGQAPRLLIYYSSNLQSGVPSRFSGSGSGTDFTLTISRLQPEDVAAYYCQQSIKLPFTFGSGTKVEIK
notes: Fab made in E. coli
Regarding B2, the “percent decrease in binding of 14D10 to CD26” value in assay [1] is at least 80%. In addition, in assay [2], the Kd came to 0.33 nM and the “ratio of the Kd of CM03 Fab to the Kd of individual clone” value came out at 4.94. For the same molecule, the Kd in assay [3] was 0.33 nM.

B3: mouse monoclonal antibody CM03 (14D10) (antibody, V domains shown)
VH: QVKLQESGPGLVQPSQTLSITCTVSGFSLTTYGVHWVRQSPGKGLEWLGVIWGGGRTDYDAAFISRLSISKDNSKSQVFFKMNSLQANDTAIYYCVRNRHDWFDYWGQGTTVTVSS
VL: DIQMTQSPSSLSASLGDRVTITCSASQGIRNSLNWYQQKPDGAVKLLIYYSSNLHSGVPSRFSGSGSGTDFSLTISNLEPEDIATYYCQQSIKLPFTFGSGTKLEIK
notes: Mouse monoclonal antibody; also called murine MAb CM03
On to B3, for which the Kd in assay [4] was 1.63 nM.
